From IntAct's records for PubMed 17227844 come the findings set out here.

The chains are these.
B1: Spindle assembly checkpoint protein BUB3 (Saccharomyces cerevisiae), P26449 (parent)
chain: MQIVQIEQAPKDYISDIKIIPSKSLLLITSWDGSLTVYKFDIQAKNVDLLQSLRYKHPLLCCNFIDNTDLQIYVGTVQGEILKVDLIGSPSFQALTNNEANLGICRICKYGDDKLIAASWDGLIEVIDPRNYGDGVIAVKNLNSNNTKVKNKIFTMDTNSSRLIVGMNNSQVQWFRLPLCEDDNGTIEESGLKYQIRDVALLPKEQEGYACSSIDGRVAVEFFDDQGDDYNSSKRFAFRCHRLNLKDTNLAYPVNSIEFSPRHKFLYTAGSDGIISCWNLQTRKKIKNFAKFNEDSVVKIACSDNILCLATSDDTFKTNAAIDQTIELNASSIYIIFDYEN
partner: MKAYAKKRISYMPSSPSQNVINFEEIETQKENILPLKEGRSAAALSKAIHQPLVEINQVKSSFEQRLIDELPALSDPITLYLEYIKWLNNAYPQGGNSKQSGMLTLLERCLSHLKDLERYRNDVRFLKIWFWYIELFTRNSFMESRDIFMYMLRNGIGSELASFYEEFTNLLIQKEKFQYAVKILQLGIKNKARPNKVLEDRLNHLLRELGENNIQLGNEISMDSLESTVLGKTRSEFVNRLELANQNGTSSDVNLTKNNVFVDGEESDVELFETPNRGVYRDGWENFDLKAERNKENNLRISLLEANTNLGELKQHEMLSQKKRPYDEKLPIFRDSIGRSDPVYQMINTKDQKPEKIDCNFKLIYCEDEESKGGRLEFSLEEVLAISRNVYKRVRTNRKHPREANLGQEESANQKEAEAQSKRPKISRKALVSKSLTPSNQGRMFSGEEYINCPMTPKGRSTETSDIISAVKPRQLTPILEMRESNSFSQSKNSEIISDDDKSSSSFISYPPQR

In this test the parent is B1. The following applies: with mad3_yeast MAD3, P47074.
Consider R197E, for which the “effect of a mutation on the interaction” value is “disrupting interaction strength”.
